# B1: Segment polarity protein dishevelled homolog DVL-2 (Homo sapiens), O14641 (parent)
# chain: MAGSSTGGGGVGETKVIYHLDEEETPYLVKIPVPAERITLGDFKSVLQRPAGAKYFFKSMDQDFGVVKEEISDDNARLPCFNGRVVSWLVSSDNPQPEMAPPVHEPRAELAPPAPPLPPLPPERTSGIGDSRPPSFHPNVSSSHENLEPETETESVVSLRRERPRRRDSSEHGAGGHRTGGPSRLERHLAGYESSSTLMTSELESTSLGDSDEEDTMSRFSSSTEQSSASRLLKRHRRRRKQRPPRLERTSSFSSVTDSTMSLNIITVTLNMEKYNFLGISIVGQSNERGDGGIYIGSIMKGGAVAADGRIEPGDMLLQVNDMNFENMSNDDAVRVLRDIVHKPGPIVLTVAKCWDPSPQAYFTLPRNEPIQPIDPAAWVSHSAALTGTFPAYPGSSSMSTITSGSSLPDGCEGRGLSVHTDMASVTKAMAAPESGLEVRDRMWLKITIPNAFLGSDVVDWLYHHVEGFPERREARKYASGLLKAGLIRHTVNKITFSEQCYYVFGDLSGGCESYLVNLSLNDNDGSSGASDQDTLAPLPGATPWPLLPTFSYQYPAPHPYSPQPPPYHELSSYTYGGGSASSQHSEGSRSSGSTRSDGGAGRTGRPEERAPESKSGSGSESEPSSRGGSLRRGGEASGTSDGGPPPSRGSTGGAPNLRAHPGLHPYGPPPGMALPYNPMMVVMMPPPPPPVPPAVQPPGAPPVRDLGSVPPELTASRQSFHMAMGNPSEFFVDVM
# Variants of: B1
# Settings: with axin1_human AXIN1, O15169
# Chain of axin1_human AXIN1, O15169 (O15169 whole entry): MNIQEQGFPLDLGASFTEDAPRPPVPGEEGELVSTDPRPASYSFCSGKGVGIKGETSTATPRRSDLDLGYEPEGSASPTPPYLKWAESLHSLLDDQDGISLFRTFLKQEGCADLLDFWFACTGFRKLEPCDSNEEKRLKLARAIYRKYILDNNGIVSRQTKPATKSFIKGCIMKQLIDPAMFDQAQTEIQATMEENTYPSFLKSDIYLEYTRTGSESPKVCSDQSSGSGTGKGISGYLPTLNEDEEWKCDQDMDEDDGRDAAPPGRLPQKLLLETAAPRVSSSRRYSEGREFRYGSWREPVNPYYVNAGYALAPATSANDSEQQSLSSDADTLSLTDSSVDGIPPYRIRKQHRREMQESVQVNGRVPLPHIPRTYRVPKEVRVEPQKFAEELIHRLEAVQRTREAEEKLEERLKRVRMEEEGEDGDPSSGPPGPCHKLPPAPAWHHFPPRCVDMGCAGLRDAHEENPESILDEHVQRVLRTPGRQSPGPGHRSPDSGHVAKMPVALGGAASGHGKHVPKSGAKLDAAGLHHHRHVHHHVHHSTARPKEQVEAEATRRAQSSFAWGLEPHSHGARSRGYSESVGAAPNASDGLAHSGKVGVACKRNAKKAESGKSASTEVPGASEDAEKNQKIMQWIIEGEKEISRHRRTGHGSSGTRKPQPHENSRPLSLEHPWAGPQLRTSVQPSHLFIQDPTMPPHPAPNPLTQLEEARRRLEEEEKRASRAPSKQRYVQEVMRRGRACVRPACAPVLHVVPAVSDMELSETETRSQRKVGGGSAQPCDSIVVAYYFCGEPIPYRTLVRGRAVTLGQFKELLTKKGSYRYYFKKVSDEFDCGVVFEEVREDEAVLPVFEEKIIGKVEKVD
row,Variant,effect of a mutation on the interaction
1,Y27D,disrupting interaction strength

# — IntAct's records for PubMed 21245303
